Laboratory results published in patent publication US20260250410A1 (SICHUAN HUIYU PHARMACEUTICAL, published 2026).
Substitutions are numbered along the chain they refer to.

T1: HuCDCP1-A (human, UniProt Q9H5V8 30-430)
T1 construct: range 30-430; expressed in HEK-293T, purified by Fc/his tag; also called human CDCP1-A; membrane-distal region of CDCP1; not shown: Fc or his tag
T1 sequence (looked up): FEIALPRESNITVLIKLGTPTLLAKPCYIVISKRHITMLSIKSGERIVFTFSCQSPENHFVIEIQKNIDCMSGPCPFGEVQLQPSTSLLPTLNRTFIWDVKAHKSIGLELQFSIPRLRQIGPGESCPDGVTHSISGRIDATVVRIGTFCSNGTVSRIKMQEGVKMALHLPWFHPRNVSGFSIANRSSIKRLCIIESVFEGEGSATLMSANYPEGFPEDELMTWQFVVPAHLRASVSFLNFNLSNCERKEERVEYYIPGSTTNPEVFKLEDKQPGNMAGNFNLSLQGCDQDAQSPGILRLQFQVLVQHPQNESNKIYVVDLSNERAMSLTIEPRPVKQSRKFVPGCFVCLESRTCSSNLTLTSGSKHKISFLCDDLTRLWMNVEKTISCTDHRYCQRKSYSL

T2: CynoCDCP1 (Macaca fascicularis, UniProt A0A2K5VLA8 30-667)
T2 construct: extracellular domain; also called Macaca fascicularis CDCP1; monkey CDCP1; not shown: Fc or his tag
T2 sequence: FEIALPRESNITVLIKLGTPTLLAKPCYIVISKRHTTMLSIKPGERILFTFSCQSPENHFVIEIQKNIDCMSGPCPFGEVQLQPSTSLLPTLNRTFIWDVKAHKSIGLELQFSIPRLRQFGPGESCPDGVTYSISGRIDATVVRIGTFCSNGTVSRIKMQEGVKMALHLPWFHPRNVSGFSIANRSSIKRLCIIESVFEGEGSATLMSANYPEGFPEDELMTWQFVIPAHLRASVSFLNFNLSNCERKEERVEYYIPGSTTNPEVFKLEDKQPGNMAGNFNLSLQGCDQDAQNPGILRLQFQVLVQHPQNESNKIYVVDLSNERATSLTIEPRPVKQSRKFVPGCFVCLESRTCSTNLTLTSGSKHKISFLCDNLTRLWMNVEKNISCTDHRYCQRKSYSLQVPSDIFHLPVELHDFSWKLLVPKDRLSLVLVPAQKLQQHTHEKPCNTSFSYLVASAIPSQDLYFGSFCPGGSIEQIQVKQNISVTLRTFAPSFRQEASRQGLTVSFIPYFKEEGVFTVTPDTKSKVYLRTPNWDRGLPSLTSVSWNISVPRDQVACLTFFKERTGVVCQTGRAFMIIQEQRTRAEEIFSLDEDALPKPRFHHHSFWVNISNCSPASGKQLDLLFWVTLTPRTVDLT

T3: RatCDCP1 (rat, UniProt D3ZVA1 29-666)
T3 construct: extracellular domain; not shown: Fc or his tag
T3 sequence: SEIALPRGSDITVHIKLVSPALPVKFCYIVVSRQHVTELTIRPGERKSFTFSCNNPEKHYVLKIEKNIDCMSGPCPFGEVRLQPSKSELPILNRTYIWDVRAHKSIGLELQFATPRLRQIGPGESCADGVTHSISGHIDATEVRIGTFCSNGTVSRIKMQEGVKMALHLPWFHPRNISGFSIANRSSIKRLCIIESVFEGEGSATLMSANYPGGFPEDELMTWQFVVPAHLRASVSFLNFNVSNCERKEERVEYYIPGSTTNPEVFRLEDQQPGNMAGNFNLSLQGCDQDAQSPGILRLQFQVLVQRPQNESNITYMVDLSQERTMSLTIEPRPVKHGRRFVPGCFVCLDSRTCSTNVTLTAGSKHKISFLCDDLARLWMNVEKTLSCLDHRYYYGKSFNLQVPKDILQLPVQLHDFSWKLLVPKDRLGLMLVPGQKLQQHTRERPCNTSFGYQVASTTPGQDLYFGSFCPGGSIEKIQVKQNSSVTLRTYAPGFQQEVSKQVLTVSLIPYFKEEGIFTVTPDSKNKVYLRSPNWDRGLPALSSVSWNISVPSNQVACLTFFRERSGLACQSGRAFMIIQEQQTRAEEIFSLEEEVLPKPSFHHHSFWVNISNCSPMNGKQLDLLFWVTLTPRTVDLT

T4: HuCDCP1-C (human, UniProt Q9H5V8 30-667)
T4 construct: range 30-667; expressed in HEK-293T, purified by Fc/his tag; also called human CDCP1-C; full-length extracellular domain of human CDCP1; not shown: Fc or his tag
T4 sequence (looked up): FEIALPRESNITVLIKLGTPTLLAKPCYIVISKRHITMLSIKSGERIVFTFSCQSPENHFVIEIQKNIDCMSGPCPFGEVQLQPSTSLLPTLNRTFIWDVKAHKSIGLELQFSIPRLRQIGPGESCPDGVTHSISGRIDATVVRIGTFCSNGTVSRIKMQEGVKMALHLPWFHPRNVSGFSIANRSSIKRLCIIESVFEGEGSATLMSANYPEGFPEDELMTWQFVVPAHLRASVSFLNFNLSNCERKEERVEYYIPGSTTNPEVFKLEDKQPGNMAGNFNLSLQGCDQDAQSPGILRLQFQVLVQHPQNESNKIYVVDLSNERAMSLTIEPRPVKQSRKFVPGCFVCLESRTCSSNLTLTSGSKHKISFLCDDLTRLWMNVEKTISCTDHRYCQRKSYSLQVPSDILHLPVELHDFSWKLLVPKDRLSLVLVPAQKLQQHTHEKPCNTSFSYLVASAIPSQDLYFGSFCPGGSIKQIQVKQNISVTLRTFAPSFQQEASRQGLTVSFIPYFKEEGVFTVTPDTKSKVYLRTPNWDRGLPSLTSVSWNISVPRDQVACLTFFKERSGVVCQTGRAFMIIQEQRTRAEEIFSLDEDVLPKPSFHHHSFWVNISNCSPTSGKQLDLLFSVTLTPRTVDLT

B1: 8E5 (antibody, V domains shown)
VH: EVQLKESGPELKKPGETVKISCKASGYTLTDFSMHWLKQAPGKGLKWMGWINTETGAPTYADDFKGRFALSLDTSANTAYLQINNLKNEDTATYFCSRGRDYDPHFDYWGQGTTVTVSS
VL: EIVLTQSPATLSVTPGDRVSLSCRASQSISDFLHWYQQRSHESPRLLIKYASQSISGIPSRFGGSGSGSDFTLNINTVEPEDVGMYYCQSAHSFPYTFGGGTKLEIK
notes: murine hybridoma mAb; also called 8ES
B2: 12E6 (antibody, V domains shown)
VH: EVQLKESGPGILQPSQTLSLTCSFSGFSLSTSGMGVGWIRQPSGKGLEWLAHIWWDDVKLYNPALKSRLTISKETSNNQVFLKIASVDAADTATYYCARIDHGYGSNYWDFDVWGAGTTVTVSS
VL: DIVMTQAAPSVPVTPGGSVSISCRSTKSLLHSDGKTYLYWFLQRPGQSPQLLIYRMSNLASGVPDRFSGSGSGTAFTLRISRVEAEDVGVYYCMQHLEYPFTFGSGTKLEIK
notes: murine hybridoma mAb
B3: 6A7 (antibody, V domains shown)
VH: EVQLKESGAELVRPGASVKVSCKASGYSFTSYWMNWVKQRPGQGLEWIGMIHPSDSETKLNQKFRDRASLTVDKSSSTAYMQLSSPTSEDSAVYYCTINYESFYYAMDYWGQGTTVTVSS
VL: DIVMTQSPASLAVSLGQRATISCRASKSVSTSGYSYMHWYQQKPGQPPKLLLYLASNLESGVPARFSGSGSGADFTLNIHPVEEEDAATYYCLHSRELPYTFGGGTKLEIK
notes: murine hybridoma mAb
B4: 3C11 (antibody, V domains shown)
VH: EVQLQQSGTVLARPGASVKMSCKASGYNFISYWLHWIKQRPGQGLEWIGGIYPGNTDTTYNQKFKGKAKVTAVTSATTAYMELSSLTNEDSAVYYCIRYDYDRGMDYWGQGTTVTVSS
VL: DIQMTQSPSSFSVSLGDRVTITCRASEDIYYRLAWYQQKPGNAPRLLISGATALETGVPSRFSGSGSGKDYTLSITSLQTEDVATYYCQHYWNIPWTFGGGTKLEIK
notes: murine hybridoma mAb
B5: G10F6 (antibody, V domains shown)
VH: EVKLVESGPGILQPSQTLSLTCSFSGFSLSTSGMGVSWVRQPSGKGLEWLAHIYWDDDKRYNPSLKGRLTISKDTPRNQVFLEITSVDTTDTATYYCARVPGNWDEDAMDYWGQGTTVTVSS
VL: DIQMTQSPLSLPVSLGDQASISCRSSQNIVHTNGNTYLEWYLQKVGQSPKLLIYKVSNRFSGVPDRFSGSGSGTDFTLKISRVEAEDLGVYYCFQGSHVPYTFGGGTKLEIK
notes: murine hybridoma mAb
B6: 1CP-117 (antibody, human IgG1, kappa, V domains shown)
VH: QVQLVQSGSELKKPGASVKVSCKASGYTLTDFSMHWVRQAPGQGLEWMGWINTETGAPTYADDFKGRFVLSLDTSVSTAYLQISSLKAEDTAVYYCSRGRDYDPHFDYWGQGTLVTVSS
VL: EIVLTQSPATLSLSPGERATLSCRASQSISDFLHWYQQKPGQSPRLLIKYASQSISGIPARFSGSGSGSDFTLTISSVEPEDFAVYYCQSAHSFPYTFGQGTKLEIKR
notes: humanized 8E5, human IgG1 kappa
B7: 1CP-121 (antibody, human IgG1, kappa, V domains shown)
VH: B6 VH
VL: B6 VL with P40S
notes: as for B6
B8: 1CP-152 (antibody, human IgG1, kappa, V domains shown)
VH: EVQLVESGGGLVQPGRSLRLSCTTSGLTFTHYHMSWVRQAPGKGLEWVAIIRNKAYGYTTDYSASVRGRFTISRDDSKSILYLQMNSLKTEDTAVYYCVREGGYGYDGTFAYWGQGTLVTVSS
VL: DIQMTQSPSSLSASVGDRVTITCRASESVDNYGISFMNWFQQKPGQAPKLLIYAASNQGSGVPSRFSGSGSGTDFTLTISSMQPEDFATYYCQQSKEVPRTFGGGTKVEIKR
notes: humanized 8C9, human IgG1 kappa
B9: 1CP-157 (antibody, human IgG1, kappa, V domains shown)
VH: B8 VH with L45P
VL: B8 VL with A47P
notes: as for B8
B10: 1CP-124 (antibody, human IgG1, kappa, V domains shown)
VH: QVQLVQSGAEVKKPGASVKVSCKASGYNFISYWLHWVRQAPGQGLEWMGGIYPGNTDTTYNQKFKGRVTMTRDTSTSTVYMELSSLRSEDTAVYYCIRYDYDRGMDYWGQGTLVTVSS
VL: DIQMTQSPSSLSASVGDRVTITCRASEDIYYRLAWYQQKPGKAPKLLISGATALETGVPSRFSGSGSGKDYTFTISSLQPEDIATYYCQHYWNIPWTFGQGTKVEIKR
notes: humanized 3C11, human IgG1 kappa
B11: 1CP-129 (antibody, human IgG1, kappa, V domains shown)
VH: B10 VH with R72A
VL: B10 VL with F73L
notes: as for B10
B12: 1CP-128 (antibody, human IgG1, kappa, V domains shown)
VH: B10 VH
VL: B10 VL with F73L
notes: as for B10
B13: 1CP-125 (antibody, human IgG1, kappa, V domains shown)
VH: B10 VH with R72A
VL: B10 VL
notes: as for B10

target: T1, HuCDCP1-A; experiment: SPR (Caterra or Biacore), antigen immobilized

Row | EC50 | Binder | binding result
1 | 79.3 nM | B1 | –
2 | 1.67 nM | B2 | –
3 | – | B3 | no binding (tested: 150 nM highest concentration)
4 | – | B4 | no binding (tested: 150 nM highest concentration)
5 | – | B5 | no binding (tested: 150 nM highest concentration)

target: T2, CynoCDCP1; experiment: SPR (Caterra or Biacore), antigen immobilized

Row | EC50 | Binder
6 | 0.0516 nM | B1
7 | 1.45 nM | B2
8 | 9.96 nM | B3
9 | 23.6 nM | B4
10 | 4.47 nM | B5

target: T3, RatCDCP1; experiment: SPR (Caterra or Biacore), antigen immobilized

Row | EC50 | Binder | binding result
11 | 50.5 nM | B1 | –
12 | – | B2 | no binding (tested: 150 nM highest concentration)
13 | 91.4 nM | B3 | –
14 | – | B4 | no binding (tested: 150 nM highest concentration)
15 | – | B5 | no binding (tested: 150 nM highest concentration)

target: T4, HuCDCP1-C; experiment: SPR (Caterra), antigen immobilized
Protocol: The humanized anti-CDCP1 antibodies obtained from Example 11 were subjected to gene cloning, constructed into pTT5 expression vector for a small amount of expression in CHO cells (Expi-CHOS: Gibco A29127), and purified with an Fc affinity column (AT Protein A Diamond Plus. No. AA402312). Antibody purity was analyzed by HPLC and determined by Nanodrop. High-throughput affinity assay was carried out for a small amount of antibodies by Caterra.

Row | Kd | koff | kon | Binder
16 | 0.259 nM | 3.93e-05 s⁻¹ | 152000 M⁻¹ s⁻¹ | B6
17 | 4.09 nM | 0.000465 s⁻¹ | 114000 M⁻¹ s⁻¹ | B8
18 | 3.14 nM | 0.000385 s⁻¹ | 122000 M⁻¹ s⁻¹ | B9
19 | 0.0993 nM | 1.47e-05 s⁻¹ | 148000 M⁻¹ s⁻¹ | B10
20 | ≤ 0.0623 nM | ≤ 1e-05 s⁻¹ | 160000 M⁻¹ s⁻¹ | B11
21 | ≤ 0.0717 nM | ≤ 1e-05 s⁻¹ | 139000 M⁻¹ s⁻¹ | B12
22 | 0.144 nM | 2.17e-05 s⁻¹ | 151000 M⁻¹ s⁻¹ | B13

Row | Binder | Kd | koff | kon
23 | B7 | ≤ 0.0675 nM | ≤ 1e-05 s⁻¹ | 148000 M⁻¹ s⁻¹
